Results: patent US5661126

Biological target: recombinant human Mullerian Inhibiting Substance (human) (UniProt P03971)
Assay: absorption of DG-MIS with IgG (1:3) and Protein A Sepharose, MIS in supernatant by ELISA; MIS alone 9.0 nM

With “normal rabbit IgG (Dako Corporation, Denmark Lot 108) (polyclonal serum or antibody)” the MIS level left after absorption was 8.8 nM.
